Earlier results, collected in paper PMC5776729.

Key:
[1] = biological target: laminin 411 (Homo sapiens) (UniProt Q16363)
[2] = biological target: laminin 511 (Homo sapiens) (UniProt O15230)
[3] = biological target: laminin 111 (Mus musculus) (UniProt P19137)
[4] = biological target: laminin 111 (Homo sapiens) (UniProt P25391)

Sequence of UniProt Q16363 (Q16363 25-1823, chain 1 of 3): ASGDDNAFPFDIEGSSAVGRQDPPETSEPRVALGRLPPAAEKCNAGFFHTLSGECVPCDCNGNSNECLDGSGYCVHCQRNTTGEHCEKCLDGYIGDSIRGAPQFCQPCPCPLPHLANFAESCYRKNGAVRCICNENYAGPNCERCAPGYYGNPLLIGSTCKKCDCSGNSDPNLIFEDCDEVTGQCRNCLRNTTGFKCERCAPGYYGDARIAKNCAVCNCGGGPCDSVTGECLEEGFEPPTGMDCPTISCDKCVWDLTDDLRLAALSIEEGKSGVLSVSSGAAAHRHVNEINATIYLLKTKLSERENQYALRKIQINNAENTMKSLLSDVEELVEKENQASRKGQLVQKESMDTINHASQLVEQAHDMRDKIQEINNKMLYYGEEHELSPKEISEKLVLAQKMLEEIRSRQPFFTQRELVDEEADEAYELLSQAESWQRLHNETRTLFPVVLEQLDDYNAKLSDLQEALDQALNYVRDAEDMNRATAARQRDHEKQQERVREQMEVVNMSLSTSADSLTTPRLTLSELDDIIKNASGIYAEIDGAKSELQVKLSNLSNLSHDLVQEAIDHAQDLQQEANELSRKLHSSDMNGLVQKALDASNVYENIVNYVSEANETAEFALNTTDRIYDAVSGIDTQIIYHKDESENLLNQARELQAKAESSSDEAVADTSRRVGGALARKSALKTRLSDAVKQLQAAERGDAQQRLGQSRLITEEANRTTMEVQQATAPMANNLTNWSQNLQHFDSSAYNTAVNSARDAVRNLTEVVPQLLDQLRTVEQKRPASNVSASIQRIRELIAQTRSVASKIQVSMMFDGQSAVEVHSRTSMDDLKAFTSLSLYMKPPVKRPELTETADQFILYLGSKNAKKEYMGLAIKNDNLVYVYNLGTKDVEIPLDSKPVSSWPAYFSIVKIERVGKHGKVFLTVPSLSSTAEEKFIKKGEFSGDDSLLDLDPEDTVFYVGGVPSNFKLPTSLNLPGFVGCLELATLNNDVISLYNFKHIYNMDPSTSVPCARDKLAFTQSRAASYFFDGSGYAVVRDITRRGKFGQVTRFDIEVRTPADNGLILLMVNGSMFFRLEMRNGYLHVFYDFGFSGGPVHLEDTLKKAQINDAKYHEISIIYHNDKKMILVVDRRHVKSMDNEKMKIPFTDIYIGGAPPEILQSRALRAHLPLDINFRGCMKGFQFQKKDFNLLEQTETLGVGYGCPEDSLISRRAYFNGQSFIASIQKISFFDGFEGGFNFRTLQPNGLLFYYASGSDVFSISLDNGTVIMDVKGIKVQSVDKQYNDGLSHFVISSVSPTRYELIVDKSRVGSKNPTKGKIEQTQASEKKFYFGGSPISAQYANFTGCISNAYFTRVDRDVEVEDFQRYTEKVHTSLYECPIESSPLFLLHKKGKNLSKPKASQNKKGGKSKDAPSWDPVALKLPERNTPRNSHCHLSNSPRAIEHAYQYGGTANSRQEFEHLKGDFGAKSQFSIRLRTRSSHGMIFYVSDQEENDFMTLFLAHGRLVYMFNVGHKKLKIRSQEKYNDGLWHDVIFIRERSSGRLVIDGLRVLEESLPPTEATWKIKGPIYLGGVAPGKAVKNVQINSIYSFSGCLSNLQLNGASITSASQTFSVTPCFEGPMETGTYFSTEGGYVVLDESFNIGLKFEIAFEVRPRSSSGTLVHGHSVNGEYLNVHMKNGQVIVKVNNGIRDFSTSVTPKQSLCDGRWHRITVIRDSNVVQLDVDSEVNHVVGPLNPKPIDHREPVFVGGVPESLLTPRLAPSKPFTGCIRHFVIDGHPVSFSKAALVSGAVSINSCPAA
Sequence of UniProt Q16363 (P07942 22-1786, chain 2 of 3, further chain): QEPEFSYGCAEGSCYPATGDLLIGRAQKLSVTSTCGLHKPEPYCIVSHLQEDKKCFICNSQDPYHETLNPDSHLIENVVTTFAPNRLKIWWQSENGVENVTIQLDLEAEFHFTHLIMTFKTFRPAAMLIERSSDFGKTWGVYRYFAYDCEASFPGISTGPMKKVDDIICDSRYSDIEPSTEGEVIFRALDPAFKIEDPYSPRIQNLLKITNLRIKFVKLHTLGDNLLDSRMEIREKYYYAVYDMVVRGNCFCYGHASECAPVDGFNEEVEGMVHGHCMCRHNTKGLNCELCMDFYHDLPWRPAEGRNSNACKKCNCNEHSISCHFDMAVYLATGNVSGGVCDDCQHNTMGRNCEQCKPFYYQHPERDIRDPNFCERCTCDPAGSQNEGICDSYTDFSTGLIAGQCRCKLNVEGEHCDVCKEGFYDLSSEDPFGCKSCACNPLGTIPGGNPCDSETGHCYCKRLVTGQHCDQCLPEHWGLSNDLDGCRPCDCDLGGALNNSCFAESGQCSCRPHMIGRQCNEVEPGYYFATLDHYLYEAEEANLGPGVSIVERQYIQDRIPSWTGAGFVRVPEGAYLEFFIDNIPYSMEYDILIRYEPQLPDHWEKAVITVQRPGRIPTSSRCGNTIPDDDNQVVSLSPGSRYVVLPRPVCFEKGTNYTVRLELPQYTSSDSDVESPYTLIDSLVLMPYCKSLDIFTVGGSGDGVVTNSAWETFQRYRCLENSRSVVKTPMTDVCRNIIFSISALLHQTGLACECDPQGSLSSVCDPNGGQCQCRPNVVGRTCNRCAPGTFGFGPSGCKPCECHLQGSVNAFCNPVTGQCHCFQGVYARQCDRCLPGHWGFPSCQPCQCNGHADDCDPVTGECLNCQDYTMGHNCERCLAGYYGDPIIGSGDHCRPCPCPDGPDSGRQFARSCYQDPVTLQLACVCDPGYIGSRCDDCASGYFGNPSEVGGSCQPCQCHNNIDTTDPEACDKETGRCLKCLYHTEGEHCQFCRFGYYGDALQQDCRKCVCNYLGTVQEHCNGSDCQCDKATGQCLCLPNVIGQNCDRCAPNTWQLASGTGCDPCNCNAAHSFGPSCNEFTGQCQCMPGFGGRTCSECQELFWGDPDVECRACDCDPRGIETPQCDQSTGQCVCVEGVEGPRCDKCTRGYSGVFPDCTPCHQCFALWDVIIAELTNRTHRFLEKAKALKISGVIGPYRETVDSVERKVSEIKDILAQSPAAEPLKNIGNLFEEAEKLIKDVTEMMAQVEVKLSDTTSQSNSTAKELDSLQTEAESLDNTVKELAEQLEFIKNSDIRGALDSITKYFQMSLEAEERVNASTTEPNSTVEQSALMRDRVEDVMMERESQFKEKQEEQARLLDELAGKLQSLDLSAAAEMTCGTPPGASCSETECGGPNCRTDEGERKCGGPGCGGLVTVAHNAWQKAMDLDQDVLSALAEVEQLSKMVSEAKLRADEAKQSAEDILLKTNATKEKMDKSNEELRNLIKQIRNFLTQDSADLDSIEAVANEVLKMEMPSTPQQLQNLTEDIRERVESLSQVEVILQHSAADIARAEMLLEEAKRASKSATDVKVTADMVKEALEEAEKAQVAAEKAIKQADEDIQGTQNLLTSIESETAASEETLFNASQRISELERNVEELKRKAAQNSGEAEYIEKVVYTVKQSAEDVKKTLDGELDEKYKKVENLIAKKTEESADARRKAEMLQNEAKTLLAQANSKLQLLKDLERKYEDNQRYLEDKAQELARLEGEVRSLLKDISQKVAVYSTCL
Sequence of UniProt Q16363 (P11047 34-1609, chain 3 of 3, further chain): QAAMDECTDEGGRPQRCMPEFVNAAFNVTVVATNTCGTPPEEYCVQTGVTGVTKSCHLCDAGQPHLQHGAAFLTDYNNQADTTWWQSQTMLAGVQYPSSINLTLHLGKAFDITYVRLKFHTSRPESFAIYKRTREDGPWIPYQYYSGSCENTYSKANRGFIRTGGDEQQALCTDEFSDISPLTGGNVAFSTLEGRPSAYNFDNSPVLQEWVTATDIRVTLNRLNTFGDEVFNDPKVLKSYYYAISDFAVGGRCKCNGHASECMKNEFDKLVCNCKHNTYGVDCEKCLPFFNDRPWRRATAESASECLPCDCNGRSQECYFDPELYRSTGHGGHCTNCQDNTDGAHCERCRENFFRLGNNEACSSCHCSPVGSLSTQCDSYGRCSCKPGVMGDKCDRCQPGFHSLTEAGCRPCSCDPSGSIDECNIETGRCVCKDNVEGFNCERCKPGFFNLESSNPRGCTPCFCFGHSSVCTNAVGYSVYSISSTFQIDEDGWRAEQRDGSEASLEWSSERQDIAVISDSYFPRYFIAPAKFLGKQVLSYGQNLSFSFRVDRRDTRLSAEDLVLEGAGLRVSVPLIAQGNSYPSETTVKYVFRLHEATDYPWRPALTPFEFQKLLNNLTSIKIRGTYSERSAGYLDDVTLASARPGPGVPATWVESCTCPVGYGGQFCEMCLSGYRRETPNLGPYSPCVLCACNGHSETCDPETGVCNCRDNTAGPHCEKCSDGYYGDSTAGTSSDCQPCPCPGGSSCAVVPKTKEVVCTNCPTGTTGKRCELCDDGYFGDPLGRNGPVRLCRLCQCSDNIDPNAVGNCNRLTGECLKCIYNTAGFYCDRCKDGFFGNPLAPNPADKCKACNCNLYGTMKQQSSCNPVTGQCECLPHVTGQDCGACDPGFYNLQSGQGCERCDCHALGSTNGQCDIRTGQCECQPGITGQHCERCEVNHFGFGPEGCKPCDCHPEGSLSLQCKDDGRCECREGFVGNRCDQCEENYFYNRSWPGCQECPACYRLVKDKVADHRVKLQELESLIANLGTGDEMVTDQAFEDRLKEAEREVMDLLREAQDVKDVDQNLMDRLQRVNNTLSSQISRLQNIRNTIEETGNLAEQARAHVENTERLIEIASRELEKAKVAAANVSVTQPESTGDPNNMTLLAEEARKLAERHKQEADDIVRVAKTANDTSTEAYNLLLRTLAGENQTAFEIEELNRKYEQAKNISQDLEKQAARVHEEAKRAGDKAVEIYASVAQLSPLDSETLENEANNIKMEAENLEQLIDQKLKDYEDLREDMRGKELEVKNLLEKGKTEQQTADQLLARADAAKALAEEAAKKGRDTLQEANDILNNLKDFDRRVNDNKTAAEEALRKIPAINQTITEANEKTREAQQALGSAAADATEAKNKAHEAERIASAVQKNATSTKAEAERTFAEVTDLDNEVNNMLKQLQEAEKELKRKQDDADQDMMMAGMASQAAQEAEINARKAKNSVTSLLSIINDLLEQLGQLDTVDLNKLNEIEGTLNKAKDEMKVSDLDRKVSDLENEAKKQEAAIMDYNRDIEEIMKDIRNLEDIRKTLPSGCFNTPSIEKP

Factor XI (from UniProt P03951)
Kd [1]: 9.2 nM
Kd [2]: 8.3 nM
Kd [3]: 18.8 nM
Kd [4]: 11.1 nM
